What all share (type): cell-based
The target of assay [1] is T1, IGF-1R (Homo sapiens, UniProt P08069).
T1 construct: all the ES cell lines tested expressed IGF-1R; endogenous in cells; host or cells: Ewing's sarcoma cell lines SKES, RDES, CADO, A673, SKNMC
Nature of the assay: IGF-1R ubiquitination in ES cells (immunoprecipitation, WB). The settings on record: 10 min stimulation, serum starved ES cells; all investigated cell lines. As to the method:
(§1) FIG. 2A-FIG. 2D. Mechanism of CP induced IGF-1R downregulation: β-arrestin1 recruitment and receptor ubiquitination. (A) Cells incubated in serum free medium for 12 h were treated with 0, 0.1 or 1 μg/ml CP for 24 h. Protein lysates were analyzed by WB for IGF-1R and GAPDH as a loading control. […] Protein lysates were analyzed by WB for IGF-1R and GAPDH as a loading control. Signals were quantified by densitometry, normalized to GAPDH and expressed as a percentage of the IGF-1R at 0 h. Data correspond to the mean±SEM from three independent experiments. […] IGF-1R was immunoprecipitated from lysates and analyzed by WB (IB) for ubiquitination (Ub) and IGF-1R as a loading control. Molecular weight markers in KDa are indicated to the left of the panels. (D) β-Arrestin1 (β-arr1) was immunoprecipitated from cell lysates prepared as for (C). Immunoprecipitated proteins were analyzed by WB for IGF-1R. The whole lysates were analyzed by WB for GAPDH as a loading control.
(§2) Cells were lysed with 500 μl lysis buffer (110 mM KOAc, 0.5% (v/v) Triton X-100, 100 mM NaCl, protease inhibitor cocktail tablet (Roche), buffering salts pH 7.4). 500 μg of protein was incubated with Dynabeads protein G (10 μl) (Invitrogen, CA, USA) and 1 μg antibody overnight at 4° C. on a rotator platform. […]
(§3) These trends were confirmed by densitometric quantification of multiple experiments (FIG. 2B, graphs). […]

In assay [2] the test system is IGF-1R, AKT and ERK phosphorylation. Put plainly: IGF-1R signaling activation in ES cell lines (WB for P-IGF-1R, P-AKT, P-ERK).
The subject of the next assay is MDA-MB-231. Put plainly: PrestoBlue cell viability, anti-IGF-1R antibody with U0126, MDA-MB-231 (breast carcinoma). The settings on record: MDA-MB-231 cells, 48 h. As to the method: (§4) Cells were incubated in 96 well tissue culture plates and cell viability was measured by PrestoBlue cell viability assay (Invitrogen, CA, USA) according to manufacturer's instructions. Fluorescence was measured with excitation at 560 nm and emission at 590 nm. Cell number was calculated from standard curves of fluorescence measurements from known numbers of cells. Triplicate cultures were performed on all experiments.
(§5) The effects of anti-IGF-1R antibodies/MEK inhibitor combination treatment on viability of different types of tumor cells were investigated using PrestoBlue cell viability assay (Invitrogen, CA, USA) according to manufacturer's instructions. (Table 3).
(§6) Cells were incubated in serum free medium for 12 h followed by pretreatment for 60 min without or with 0.5, 1, 3 or 5 μM of the ERK inhibitor U0126, and then treated without or with 100 ng/ml anti-IGF-1R antibodies (Figitumumab or αIR-3 (Calbiochem, US). Cells were incubated in 96 well tissue culture plates for 48 hours and cell viability was measured by PrestoBlue cell viability assay. Fluorescence was measured with excitation at 560 nm and emission at 590 nm. Cell number was calculated from standard curves of fluorescence measurements from known numbers of cells. Triplicate cultures were performed on all experiments. The inhibition induced by anti-IGF-1R antibodies treated cells was calculated as percentage of untreated cells.

A further assay relates to A549. Put plainly: PrestoBlue cell viability, anti-IGF-1R antibody with U0126, A549 (lung cancer). The settings on record: 48 h. The method, then: as §4, §5, §6
The target in assay [3] is T1, IGF-1R. Nature of the assay: IGF-1R downregulation in ES cell lines (western blot). As to the method: as §1, with “Mechanism of CP induced IGF-1R downregulation: β-arrestin1 recruitment and receptor ubiquitination.” left out
Appropriate primary antibody was incubated overnight at 4° C.
Given that β-arrestin1 (β-arr1) is a key protein involved in IGF-1R ubiquitination, we also investigated ligand induced IGF-1R/β-arr1 association.
Background: In western blotting, separated proteins are transferred to a membrane and probed.

Assay [4] concerns the target T2, IGF-1R/β-arr1 association (Homo sapiens, UniProt P08069).
T2 construct: endogenous in cells; host or cells: Ewing's sarcoma cell lines
Nature of the assay: β-arrestin1 recruitment to IGF-1R in ES cell lines (immunoprecipitation, WB). The settings on record: 10 min stimulation; all ES cell lines. As to the method: as §1, §2, §3

Setting [5] is: serum starved ES cells, stimulation up to 60 min.
The mark [6] stands for this setting: U0126 0 μM (60 min pretreatment).
The mark [7] stands for this setting: U0126 0.5 μM (60 min pretreatment).
[8] abbreviates: U0126 1 μM (60 min pretreatment).
Setting [9] is: U0126 3 μM (60 min pretreatment).
[10] abbreviates: U0126 5 μM (60 min pretreatment).

This is an account of results in patent publication US20140335077A1, “Compositions and Methods for the Treatment of Cancer Using IGF-IR Antagonists and MAPK/ERK Inhibitors” (priority 2013, published 2014).

B1: CP-751,871: anti-IGF-1R antibody figitumumab (Pfizer), IGF-1R antagonist (antibody, chains of the INN, looked up)
heavy: EVQLLESGGGLVQPGGSLRLSCTASGFTFSSYAMNWVRQAPGKGLEWVSAISGSGGTTFYADSVKGRFTISRDNSRTTLYLQMNSLRAEDTAVYYCAKDLGWSDSYYYYYGMDVWGQGTTVTVSSASTKGPSVFPLAPCSRSTSESTAALGCLVKDYFPEPVTVSWNSGALTSGVHTFPAVLQSSGLYSLSSVVTVPSSNFGTQTYTCNVDHKPSNTKVDKTVERKCCVECPPCPAPPVAGPSVFLFPPKPKDTLMISRTPEVTCVVVDVSHEDPEVQFNWYVDGVEVHNAKTKPREEQFNSTFRVVSVLTVVHQDWLNGKEYKCKVSNKGLPAPIEKTISKTKGQPREPQVYTLPPSREEMTKNQVSLTCLVKGFYPSDIAVEWESNGQPENNYKTTPPMLDSDGSFFLYSKLTVDKSRWQQGNVFSCSVMHEALHNHYTQKSLSLSPG
light: DIQMTQFPSSLSASVGDRVTITCRASQGIRNDLGWYQQKPGKAPKRLIYAASRLHRGVPSRFSGSGSGTEFTLTISSLQPEDFATYYCLQHNSYPCSFGQGTKLEIKRTVAAPSVFIFPPSDEQLKSGTASVVCLLNNFYPREAKVQWKVDNALQSGNSQESVTEQDSKDSTYSLSSTLTLSKADYEKHKVYACEVTHQGLSSPVTKSFNRGEC
As to B1, the “IGF-1R ubiquitination compared with IGF-1” value with IGF-1R [1] is listed as “more potent in generating receptor ubiquitination”. The AKT phosphorylation result in assay [2] (setting [5]) is “undetectable”. Moreover, the IGF-1R phosphorylation result in assay [2] (setting [5]) is given as “undetectable”. Further, the ERK phosphorylation result in assay [2] (serum starved cells, up to 60 min, all ES cell lines) was “clear ERK phosphorylation signals”. Moreover, the “Percentage inhibition of antibody treated cells (100 ng/ml)” value is 8% in the assay with MDA-MB-231 (setting [6]); 12% in the assay with MDA-MB-231 (setting [7]); 15% in the assay on MDA-MB-231 (setting [8]); 22% in the assay on MDA-MB-231 (setting [9]); 32% in the assay with MDA-MB-231 (setting [10]); 40% in the assay on A549 (setting [6]). The “Percentage inhibition of antibody treated cells (100 ng/ml)” value stood at 56% with A549 (setting [7]), 77% in the assay with A549 (setting [8]), 88% in the assay with A549 (setting [9]) and 98% in the assay with A549 (setting [10]). In the assay with IGF-1R [3] (100 ng/ml or 1 μg/ml, 24 h, serum starved, all ES cell lines), the IGF-1R downregulation entry is on record as “downregulate IGF-1R in a dose dependent manner”. Also, the “Rate of receptor degradation” value with IGF-1R [3] (A673 cells, time-response) was “very fast”. Also, the “Receptor degradation compared with IGF-1 (time-response)” value in the assay with IGF-1R [3] (SKES, RDES, CADO and SKNMC, molar concentration approximately 10 fold less than IGF-1) was “more efficient at inducing receptor degradation”. For the same molecule, the “β-arr1 recruitment to the receptor compared with IGF-1” value in assay [4] is recorded as “much more potent than IGF-1 in recruiting β-arr1”.
